How the values were obtained:
Experiment in all cases: SPR, Fab over captured mutant LAG-3-Fc;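 also: fc fusion variants captured on anti-human IgG Fc sensor, Fab injected with association then dissociation phases, KD obtained from Langmuir one-to-one fit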
[1] = target: T1, human LAG-3 domain 1-2 Fc fusion, point mutation #2 Q41A (human, UniProt P18627 23-266)
T1 construct: not shown: human IgG1 Fc, AA P101-K330
T1 sequence: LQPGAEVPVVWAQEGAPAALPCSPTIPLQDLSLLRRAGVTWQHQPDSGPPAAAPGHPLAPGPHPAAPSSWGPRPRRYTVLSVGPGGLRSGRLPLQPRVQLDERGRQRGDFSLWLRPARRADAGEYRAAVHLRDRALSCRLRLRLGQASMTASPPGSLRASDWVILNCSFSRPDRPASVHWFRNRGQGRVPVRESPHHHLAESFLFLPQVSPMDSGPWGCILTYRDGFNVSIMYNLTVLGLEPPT

[2] = target: T2, human LAG-3 domain 1-2 Fc fusion, point mutation #77 R148A (human, UniProt P18627 23-266)
T2 construct: not shown: human IgG1 Fc, AA P101-K330
T2 sequence: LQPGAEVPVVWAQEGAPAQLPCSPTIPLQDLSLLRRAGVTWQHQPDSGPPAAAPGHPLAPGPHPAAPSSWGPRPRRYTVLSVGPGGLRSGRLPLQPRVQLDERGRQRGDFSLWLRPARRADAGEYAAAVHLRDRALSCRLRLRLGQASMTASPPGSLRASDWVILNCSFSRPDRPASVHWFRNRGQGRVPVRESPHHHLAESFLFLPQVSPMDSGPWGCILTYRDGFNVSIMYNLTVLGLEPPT

[3] = target: T3, human LAG-3 domain 1-2 Fc fusion, point mutation #13 R58A (human, UniProt P18627 23-266)
T3 construct: not shown: human IgG1 Fc, AA P101-K330
T3 sequence: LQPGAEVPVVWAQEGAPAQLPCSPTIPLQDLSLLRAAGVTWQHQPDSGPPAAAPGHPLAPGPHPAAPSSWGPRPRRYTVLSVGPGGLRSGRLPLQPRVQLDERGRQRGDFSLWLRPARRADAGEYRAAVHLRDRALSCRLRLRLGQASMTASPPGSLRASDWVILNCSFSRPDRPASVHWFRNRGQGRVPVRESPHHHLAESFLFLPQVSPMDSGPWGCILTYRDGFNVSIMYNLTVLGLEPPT

[4] = target: T4, human LAG-3 domain 1-2 Fc fusion, point mutation #62 Q121A (human, UniProt P18627 23-266)
T4 construct: not shown: human IgG1 Fc, AA P101-K330
T4 sequence: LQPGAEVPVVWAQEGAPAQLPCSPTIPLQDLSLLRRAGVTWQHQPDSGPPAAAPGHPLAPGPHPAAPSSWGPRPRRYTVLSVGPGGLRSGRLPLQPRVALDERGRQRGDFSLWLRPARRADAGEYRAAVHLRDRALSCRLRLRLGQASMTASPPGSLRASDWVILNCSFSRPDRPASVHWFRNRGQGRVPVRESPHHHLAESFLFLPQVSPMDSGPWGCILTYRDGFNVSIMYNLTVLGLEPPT

[5] = target: T5, human LAG-3 domain 1-2 Fc fusion, point mutation #60 P118A (human, UniProt P18627 23-266)
T5 construct: not shown: human IgG1 Fc, AA P101-K330
T5 sequence: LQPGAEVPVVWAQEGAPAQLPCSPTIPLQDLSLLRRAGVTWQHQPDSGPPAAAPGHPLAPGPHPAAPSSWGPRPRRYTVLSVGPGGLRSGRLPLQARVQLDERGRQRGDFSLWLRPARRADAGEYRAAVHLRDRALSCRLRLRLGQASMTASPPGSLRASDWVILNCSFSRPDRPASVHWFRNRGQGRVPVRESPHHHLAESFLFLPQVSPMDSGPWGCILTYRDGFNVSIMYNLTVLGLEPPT

[6] = target: T6, human LAG-3 domain 1-2 Fc fusion, point mutation #41 P94A (human, UniProt P18627 23-266)
T6 construct: not shown: human IgG1 Fc, AA P101-K330
T6 sequence: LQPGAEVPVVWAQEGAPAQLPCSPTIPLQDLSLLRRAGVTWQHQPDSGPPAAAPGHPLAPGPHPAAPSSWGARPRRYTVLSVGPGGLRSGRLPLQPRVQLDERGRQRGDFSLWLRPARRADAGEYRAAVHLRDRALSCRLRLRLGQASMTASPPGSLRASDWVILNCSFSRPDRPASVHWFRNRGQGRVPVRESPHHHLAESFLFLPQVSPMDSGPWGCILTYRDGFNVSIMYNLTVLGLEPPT

[7] = target: T7, human LAG-3 domain 1-2 Fc fusion, point mutation #67 R127A (human, UniProt P18627 23-266)
T7 construct: not shown: human IgG1 Fc, AA P101-K330
T7 sequence: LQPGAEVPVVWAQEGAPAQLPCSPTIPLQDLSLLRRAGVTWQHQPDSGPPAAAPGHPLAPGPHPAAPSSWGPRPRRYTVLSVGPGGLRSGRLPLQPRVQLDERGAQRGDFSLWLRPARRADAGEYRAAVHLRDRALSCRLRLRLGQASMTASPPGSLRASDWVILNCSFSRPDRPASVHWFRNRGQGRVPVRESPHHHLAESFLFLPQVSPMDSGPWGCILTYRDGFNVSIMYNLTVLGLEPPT

[8] = target: T8, human LAG-3 domain 1-2 Fc fusion, point mutation #71 D131A (human, UniProt P18627 23-266)
T8 construct: not shown: human IgG1 Fc, AA P101-K330
T8 sequence: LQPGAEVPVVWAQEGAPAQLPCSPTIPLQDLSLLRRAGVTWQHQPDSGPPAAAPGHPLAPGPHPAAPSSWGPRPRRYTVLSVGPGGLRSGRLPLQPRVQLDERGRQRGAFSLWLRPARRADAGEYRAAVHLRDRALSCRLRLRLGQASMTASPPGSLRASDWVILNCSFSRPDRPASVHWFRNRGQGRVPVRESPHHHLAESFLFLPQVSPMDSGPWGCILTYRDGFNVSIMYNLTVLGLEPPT

[9] = target: T9, human LAG-3 domain 1-2 Fc fusion, point mutation #43 P96A (human, UniProt P18627 23-266)
T9 construct: not shown: human IgG1 Fc, AA P101-K330
T9 sequence: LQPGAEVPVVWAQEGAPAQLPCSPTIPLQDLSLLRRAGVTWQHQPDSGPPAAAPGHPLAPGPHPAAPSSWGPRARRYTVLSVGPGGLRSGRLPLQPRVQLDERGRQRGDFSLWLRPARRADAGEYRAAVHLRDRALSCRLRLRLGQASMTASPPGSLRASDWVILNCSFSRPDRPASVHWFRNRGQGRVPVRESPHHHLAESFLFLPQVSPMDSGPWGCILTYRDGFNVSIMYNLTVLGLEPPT

B1: Fab fragment of antibody 15532 (Fab, V domains shown, not shown: a dimerising Fc or GST)
VH: QVQLQQWGAGLLRPSETLSLTCAVYGESFSGYYWNWIRQPPGKGLEWIGEINHSGSTNYNPSLKSRVTISVDTSKTQFSLKLSSVTAADTAVYYCARGWDLLDWNDYWNEYWGQGTLVTVSS
VL: EIVLTQSPATLSLSPGERATLSCRASQSVSSYLAWYQQKPGQAPRLLIYDASNRATGIPARFSGSGSGTDFTLTISSLEPEDFAVYYCQQRSNWPLTFGGGTKVEIKR
notes: monomeric Fab made by GingisKHAN digestion of the IgG1
KD mutant/KD wild type [1]: 3.4 fold | KD mutant/KD wild type [2]: 2.9 fold | KD mutant/KD wild type [3]: 0.8 fold | KD mutant/KD wild type [4]: 0.9 fold | KD mutant/KD wild type [5]: 0.7 fold | KD mutant/KD wild type [6]: 0.8 fold | KD mutant/KD wild type [7]: 0.6 fold | KD mutant/KD wild type [8]: 4.2 fold | KD mutant/KD wild type [9]: 1.4 fold

B2: Fab fragment of antibody 15011 (Fab, V domains shown, not shown: a dimerising Fc or GST)
VH: EVQLLESGGGLVQPGGSLRLSCAASGFDFRSYAMMWVRQAPGKGLEWVGGINGEVGGSNTYYAPAVKGRATISRDNSKNTLYLQMNSLRAEDTAVYYCVKGAGACGICNDDIDAWGQGTLVTVSS
VL: SYELTQDPAVSVALGQTVRITCSGAGSYAGSYYYGWHQQKPGQAPVTVIYDNDKRPSNIPDRFSGSSSGNTASLTITGAQAEDEADYYCGSTNDNDDGGLFGSGTKVTVLG
notes: as for B1
KD mutant/KD wild type [1]: 0.7 fold | KD mutant/KD wild type [2]: 0.7 fold | KD mutant/KD wild type [3]: 1.7 fold | KD mutant/KD wild type [4]: 0.9 fold | KD mutant/KD wild type [5]: 1.2 fold | KD mutant/KD wild type [6]: 0.7 fold | KD mutant/KD wild type [7]: 0.9 fold | KD mutant/KD wild type [8]: 0.6 fold | KD mutant/KD wild type [9]: 0.6 fold

B3: Fab fragment of antibody 15431 (Fab, V domains shown, not shown: a dimerising Fc or GST)
VH: QVQLQQSGPGLVKPSQTLSLTCAISGDSVSSNSAAWNWIRQSPSRGLEWLGRTYYRSKWYNDYAVSVKSRITINPDTSKNQFSLQLNSVTPEDTAVYYCARDDDWNDFDYWGQGTLVTVSS
VL: EIVLTQSPATLSLSPGERATLSCRASQSVSSYLAWYQQKPGQAPRLLIYDASNRATGIPARFSGSGSGTDFTLTISSLEPEDFAVYYCQQRSNWPLTFGGGTKVEIKR
notes: as for B1
binding result [1]: no binding (tested: 300 nM) | binding result [2]: no binding (tested: 300 nM) | KD mutant/KD wild type [3]: 1.2 fold | KD mutant/KD wild type [4]: 1 fold | KD mutant/KD wild type [5]: 1 fold | binding result [6]: no binding (tested: 300 nM) | KD mutant/KD wild type [7]: 0.9 fold | binding result [8]: no binding (tested: 300 nM) | binding result [9]: no binding (tested: 300 nM)

B4: Fab fragment of antibody 15572 (Fab, V domains shown, not shown: a dimerising Fc or GST)
VH: QLQLQESGPGLVKPSETLSLTCTVSGDSISSSSYYWGWIRQPPGKGLEWIGSIFYSGNTYYNPSLKSRVTISVDTSKNQFSLKLSSVTAADTAVYYCAREDDFLTDYYGAFDIWGQGTMVTVSS
VL: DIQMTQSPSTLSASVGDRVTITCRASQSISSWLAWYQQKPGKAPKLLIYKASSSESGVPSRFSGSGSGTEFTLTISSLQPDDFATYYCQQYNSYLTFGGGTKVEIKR
notes: as for B1
binding result [1]: no binding (tested: 300 nM) | binding result [2]: no binding (tested: 300 nM) | KD mutant/KD wild type [3]: 0.8 fold | KD mutant/KD wild type [4]: 0.6 fold | KD mutant/KD wild type [5]: 0.9 fold | KD mutant/KD wild type [6]: 0.6 fold | KD mutant/KD wild type [7]: 0.5 fold | binding result [8]: no binding (tested: 300 nM) | binding result [9]: no binding (tested: 300 nM)
